From patent publication EP4810515A1 (Shanghai Haiju Biological Technology Co., Ltd., dated 2026)
Numbering of substitutions follows the chain as printed.

T1: human GDF15 recombinant protein (ACRO, GD5-H5149) (human, UniProt Q99988 197-308)
T1 sequence (looked up): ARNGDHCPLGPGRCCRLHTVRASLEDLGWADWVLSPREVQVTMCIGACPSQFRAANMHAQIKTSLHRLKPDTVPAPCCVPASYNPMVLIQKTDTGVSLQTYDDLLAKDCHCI

T2: GDF15 protein (R&D, 8146-GD) (UniProt Q99988 197-308)
T2 construct: analyte of the SPR assay
T2 sequence (looked up): T1 sequence (looked up)

B1: G2-H1-hz15-hIgG1(LALAGA, -K) (antibody, V domains shown)
VH: QVTLLESGGGLVQPGGSLRLSCSFSGFSLSTYGIGVGWIRQAPGKGLEWLAHIWWNNNKYFNTALKSRLTISKDTSKNTVYLQMNSVRAEDTAVYYCARMGYDIMDYWGQGTTVTVSS
VL: DIVMTQSPATLSTSPGERATLSCKASQDVNTAVAWYQQKPGQAPRFLIYSSSYRYTGVPARFSGSGSGTEFTFTISSLQSEDFAVYYCQQHYSTPWTFGGGTKVEIKR
notes: humanized from G2-CH1
B2: G2-H1-hz2-hIgG1(LALAGA, -K) (antibody, V domains shown)
VH: QVQLQESGPGLVKPSETLSLTCTFSGFSLSTYGIGVGWIRQPPGKGLEWIAHIWWNNNKYFNTALKSRLTISKDTSKNQVSLKLSSVTAADTAVYYCARMGYDIMDYWGQGTLVTVSS
VL: DIVMTQSPSSLSTSVGDRVTITCKASQDVNTAVAWYQQKPGKSPKFLIYSSSYRYTGVPDRFSGSGSGTDFTFTISSVQPEDFAVYYCQQHYSTPWTFGGGTKVEIKR
notes: humanized from G2-CH1
B3: G2-H1-hz8-hIgG1(LALAGA, -K) (antibody, V domains shown)
VH: B2 VH with Q3T, T23S, I50L, V94T, L113S
VL: B1 VL with A19V, L21I, A43S, A60D, E70D, L78V
notes: humanized from G2-CH1
B4: G2-H1-hz13-hIgG1(LALAGA, -K) (antibody, V domains shown)
VH: B1 VH
VL: B2 VL with V3Q, S43A, V78L, G100Q
notes: humanized from G2-CH1
B5: G2-H1-hz4-hIgG1(LALAGA, -K) (antibody, V domains shown)
VH: B2 VH
VL: B1 VL with A19V, L21I, A43S, A60D, E70D, L78V
notes: humanized from G2-CH1
B6: G2-H1-hz1-hIgG1(LALAGA, -K) (antibody, V domains shown)
VH: B2 VH
VL: B2 VL with V3Q, S43A, V78L, G100Q
notes: humanized from G2-CH1
B7: G2-H1-hz14-hIgG1(LALAGA, -K) (antibody, V domains shown)
VH: B1 VH
VL: B2 VL
notes: humanized from G2-CH1
B8: G2-H1-hz6-hIgG1(LALAGA, -K) (antibody, V domains shown)
VH: B2 VH with Q3T, T23S, I50L, V94T, L113S
VL: B2 VL
notes: humanized from G2-CH1
B9: G2-H8-H1L1-hIgG1(LALAGA,-K)(gsm) (antibody, V domains shown)
VH: QITLKESGPTLVKPTQTLTLTCTFSGFSLSTYGIGVGWIRQPPGKALEWLAHIWWNDNKYYNTALKSRLTITKDTSKNQVVLTMTNMDPVDTATYYCARLAYDYVDSWGQGTLVTVSS
VL: DIVMTQTPLSLSVTPGQPASISCKSSKSLLHSEGITYLYWYLQKPGQSPQLLIYQMSNLVSGVPDRFSGSGSGTDFTLKISRVEAEDVGVYYCAQNLELPPTFGQGTKLEIKR
notes: humanized from G2-CH8-LP3; also called G2-H8-H1L1-hIgG1(gsm); G2-H8-H1L1-hIgG1 (gsm)(LALAGA,-K)
B10: G2-H8-H2L2-hIgG1(LALAGA,-K) (antibody, V domains shown)
VH: B9 VH with I2V, T10A, A46G, T72S, L113T, V114L
VL: B9 VL with K24R, G69S
notes: humanized from G2-CH8-LP3
B11: G2-H5-H2.2L2-hIgG1(LALAGA,-K) (antibody, V domains shown)
VH: EVQLVQSGAEVKKPGASVKVSCKASGYTFTDYNLNWVRQATGQGLEWMGDLNPYNQGIIYNQKFKGRVTLTVDKSISTAYMELSSLRSEDTAVYYCAREGRGGAWFDSWGQGTLVTVSS
VL: DIQMTQSPSSLSASVGDRVTITCKASEDIYHRLAWYQQKPGKAPKLLIYGATSLETGVPSRFSGSGSGTDYTFTISSLQPEDIATYYCQQYWSPPFTFGGGTKVEIKR
notes: humanized from G2-CH5-HP2
B12: G2-H5-H3.2L3-hIgG1(LALAGA,-K) (antibody, V domains shown)
VH: B11 VH with M48I, V68A
VL: B11 VL with Y49S
notes: humanized from G2-CH5-HP2
B13: G2-H5-H4.2L4-hIgG1(LALAGA,-K) (antibody, V domains shown)
VH: B11 VH with F29L, M48I, V68A, D73N
VL: B11 VL with Y49S, V58I
notes: humanized from G2-CH5-HP2
B14: G2-H5-H3.2L4-hIgG1(LALAGA,-K) (antibody, V domains shown)
VH: B11 VH with M48I, V68A
VL: B11 VL with Y49S, V58I
notes: humanized from G2-CH5-HP2
B15: G2-H5-H4.2L2-hIgG1(LALAGA,-K) (antibody, V domains shown)
VH: B11 VH with F29L, M48I, V68A, D73N
VL: B11 VL
notes: humanized from G2-CH5-HP2
B16: G2-H5-H4.2L3-hIgG1(LALAGA,-K) (antibody, V domains shown)
VH: B11 VH with F29L, M48I, V68A, D73N
VL: B11 VL with Y49S
notes: humanized from G2-CH5-HP2
B17: G2-H5-H4.2L1-hIgG1(LALAGA,-K) (antibody, V domains shown)
VH: B11 VH with F29L, M48I, V68A, D73N
VL: B11 VL with Y71F
notes: humanized from G2-CH5-HP2
B18: G2-H5-H1.2L1-hIgG1(LALAGA,-K) (antibody, V domains shown)
VH: B11 VH with L70M, K74T
VL: B11 VL with Y71F
notes: humanized from G2-CH5-HP2
B19: G2-H5-H1.2L4-hIgG1(LALAGA,-K) (antibody, V domains shown)
VH: B11 VH with L70M, K74T
VL: B11 VL with Y49S, V58I
notes: humanized from G2-CH5-HP2
B20: G2-H5-H2.2L4-hIgG1(LALAGA,-K) (antibody, V domains shown)
VH: B11 VH
VL: B11 VL with Y49S, V58I
notes: humanized from G2-CH5-HP2
B21: G2-H5-H1.2L3-hIgG1(LALAGA,-K) (antibody, V domains shown)
VH: B11 VH with L70M, K74T
VL: B11 VL with Y49S
notes: humanized from G2-CH5-HP2
B22: G2-H5-H3.2L1-hIgG1(LALAGA,-K) (antibody, V domains shown)
VH: B11 VH with M48I, V68A
VL: B11 VL with Y71F
notes: humanized from G2-CH5-HP2
B23: G2-H5-H2.2L1-hIgG1(LALAGA, -K) (antibody, V domains shown)
VH: B11 VH
VL: B11 VL with Y71F
notes: humanized from G2-CH5-HP2
B24: G2-H5-H2.2L3-hIgG1(LALAGA,-K) (antibody, V domains shown)
VH: B11 VH
VL: B11 VL with Y49S
notes: humanized from G2-CH5-HP2
B25: G2-H5-H3.2L2-hIgG1(LALAGA,-K) (antibody, V domains shown)
VH: B11 VH with M48I, V68A
VL: B11 VL
notes: humanized from G2-CH5-HP2
B26: G2-H5-H1.2L2-hIgG1(LALAGA,-K) (antibody, V domains shown)
VH: B11 VH with L70M, K74T
VL: B11 VL
notes: humanized from G2-CH5-HP2

Biological target: T1, human GDF15 recombinant protein (ACRO, …)
Assay: cell-based or functional assay

Row | Binder | IC50, reporter gene cell strain (GFRAL/RET) [nM]
1 | B1 | 0.077
2 | B2 | 0.08
3 | B3 | 0.062
4 | B4 | 0.062
5 | B5 | 0.071
6 | B6 | 0.063
7 | B7 | 0.085
8 | B8 | 0.073
9 | B9 | 0.069
10 | B10 | 0.053
11 | B11 | 0.049
12 | B12 | 0.064
13 | B13 | 0.081
14 | B14 | 0.039
15 | B15 | 0.059
16 | B16 | 0.049
17 | B17 | 0.087
18 | B18 | 0.036
19 | B19 | 0.053
20 | B20 | 0.048
21 | B21 | 0.069
22 | B22 | 0.068
23 | B23 | 0.055
24 | B24 | 0.048
25 | B25 | 0.041
26 | B26 | 0.046

Biological target: T2, GDF15 protein (R&D, 8146-GD)
Assay: SPR Biacore T200, antibody captured by anti-hFc on CM5, GDF15 as analyte, 1:1 model

Row | Binder | Kd [nM] | koff [s⁻¹] | kon [M⁻¹ s⁻¹]
27 | B1 | 0.00923 | 0.000115 | 1.25e+07
28 | B2 | 0.0134 | 0.000192 | 1.43e+07
29 | B3 | 0.0178 | 0.000273 | 1.53e+07
30 | B4 | 0.0211 | 0.000297 | 1.41e+07
31 | B5 | 0.00993 | 0.000183 | 1.84e+07
32 | B6 | 0.0105 | 0.000146 | 1.39e+07
33 | B7 | 0.0107 | 0.00015 | 1.4e+07
34 | B8 | 0.0151 | 0.000221 | 1.46e+07
35 | B9 | 0.022 | 0.00017 | 7.75e+06
36 | B10 | 0.0143 | 0.000127 | 8.9e+06
37 | B11 | 0.0178 | 0.000145 | 8.11e+06
38 | B12 | 0.0339 | 0.000359 | 1.06e+07
39 | B13 | 0.0349 | 0.00026 | 7.44e+06
40 | B14 | 0.0221 | 0.000175 | 7.9e+06
41 | B15 | 0.0273 | 0.000239 | 8.75e+06
42 | B16 | 0.0251 | 0.000193 | 7.68e+06
43 | B17 | 0.0442 | 0.000278 | 6.28e+06
44 | B18 | 0.0244 | 0.000169 | 6.94e+06
45 | B19 | 0.0241 | 0.000201 | 8.36e+06
46 | B20 | 0.021 | 0.000231 | 1.1e+07
47 | B21 | 0.0197 | 0.000185 | 9.37e+06
48 | B22 | 0.0245 | 0.000173 | 7.03e+06
49 | B23 | 0.0229 | 0.000189 | 8.26e+06
50 | B24 | 0.0336 | 0.000284 | 8.46e+06
51 | B25 | 0.0327 | 0.000265 | 8.1e+06
52 | B26 | 0.0145 | 0.000134 | 9.19e+06
